From patent US20170362324A1 (Biogen, published 2017)

Tests used:
[1] = biological target: T1, human αvβ5 expressed on BaF3 cells (stably transfected with human αv and β5 subunits) (human, UniProt P06756 31-1048; P18084 24-799); experiment: FACS binding curves on αvβ5-BaF3 cells, 10,000 cells/experiment; monovalent Fab, not mAb
T1 construct: also called αvβ5-BaF3; BaF3-hu αvβ5
Experimental: (§1) This experiment was carried out to confirm the affinity of ALULA-H4/L2-IgG4.P(S228P)/IgG1(N297Q) for cell surface expressed αvβ5 stably expressed on murine BaF3 cells. Binding curves were generated using a lower number of cells to ensure that antibody was not simply titrating the receptors on the cell.

[2] = biological target: T2, human soluble αvβ5 protein (extracellular domains of human αv and β5 integrin subunits) (human, UniProt P06756 31-992; P18084 24-719); experiment: ELISA, Fab blocking of 2 nM soluble αvβ5 binding to immobilized human plasma vitronectin
T2 construct: also called biotin-αvβ5; hsαvβ5
Experimental: Fab fragments of the four constructs of Example 6 were generated from the corresponding IgG1(N297Q) versions by digestion with papain. The ability of each Fab to block 2 nM soluble αvβ5 binding to immobilized human plasma vitronectin was determined by ELISA.

[3] = biological target: T1, human αvβ5 expressed on BaF3 cells …; experiment: cell-based or functional assay
[4] = biological target: cynomolgus monkey αvβ5 expressed on BaF3 cells (cynomolgus monkey, UniProt A0A2K5WCD3 31-1048; A0A2K5UEB4 24-799); experiment: cell-based or functional assay
[5] = biological target: T1, human αvβ5 expressed on BaF3 cells …; experiment: FACS on BaF3-hu αvβ5 cells
Experimental: FACS Binding Assay: Cells were washed one time in PBS, and then resuspended in FACS buffer (1×PBS, 1% BSA, 1 mM CaCl₂, and 1 mM MgCl₂). 1×10⁶ cells were then incubated on ice for 1 hr in FACS buffer containing the test antibody in a total volume of 50 μl. After incubation, the cells were washed two times with ice cold FACS buffer, resuspended in 50 μl of FACS buffer containing 3 μg/ml goat anti-mouse IgG AlexaFluor488 (Jackson ImmunoResearch), and incubated on ice for 30 min. The cells were then washed twice with ice cold FACS buffer and fixed in 1% PFA overnight. Cell aggregates were removed by filtering through 40 μm filter plates (Millipore) and binding of the labeled secondary antibody was monitored by flow cytometry using a FACS Calibur (BD Biosciences).
(§2) Based on the results described above in Example 4, four humanized ALULA constructs: VH2/VL2, VH4/VL0, VH4/VL2, and VH5/VL2, were selected for further testing. These VH/VL constructs were expressed as fusion proteins with the hybrid, aglycosylated IgG4.P (S228P)/IgG1 (N297Q) domain, and human kappa light chain domain, and purified from the conditioned medium of stably transfected CHO cells. Each humanized ALULA construct was assessed for binding using competition ELISA with murine ALULA and by FACS using human αvβ5-transfected BaF3 cells. Each humanized ALULA construct was also assessed for blocking binding/adhesion to vitronectin by ELISA or cell adhesion assays using BaF3 cells stably transfected with human or cynomolgous monkey αvβ5. The humanized ALULA constructs were compared to a chimeric form of ALULA comprising the murine heavy and light chain variable domains fused to human IgG1 heavy chain and human kappa light chain domains. The four humanized ALULA constructs behaved similarly in the assays, with H4/L2 generally having similar or slightly higher affinity/blocking potency than the other constructs (see, Table 3).

[6] = biological target: T2, human soluble αvβ5 protein …; experiment: αvβ5-vitronectin blocking ELISA
Experimental: Vitronectin Inhibition ELISA: 96-well microtiter plates were coated with 5 μg/ml purified human plasma vitronectin diluted in PBS (50 μl/well) at 4° C. overnight. After the coating solution was removed, the plates were blocked with 300 μl/well of 1% BSA/TBS at 25° C. for 1 hr. The plate was washed with wash buffer (0.05% Tween-20 in TBS containing 1 mM CaCl₂ and 1 mM MgCl₂), and dilutions of humanized antibodies mixed with 1 nM soluble αvβ5 protein in TBS containing 1% BSA, 1 mM CaCl₂ and 1 mM MgCl₂ were added (50 μl/well) and incubated at 25° C. for 1 hr. The plate was washed 4 times with wash buffer in an automated plate washer and incubated sequentially with 50 μl/well of the anti-beta5 monoclonal antibody 15F11 (at 0.5 ug/mL) in for 1 hr at 25° C. in TBS containing 1% BSA, 1 mM CaCl₂ and 1 mM MgCl₂. After washing the plate 4 times with wash buffer, 100 μl/well of a 1:5000 dilution of a peroxidase-conjugated goat anti-mouse antibody in TBS containing 1% BSA, 1 mM CaCl₂ and 1 mM MgCl₂ were added and incubated for 1 hr at 25° C. Bound protein was detected using the TMB substrate and indicated by the absorbency measured at 450 nm.
as §2

[7] = biological target: T2, human soluble αvβ5 protein …; experiment: ALULA competition ELISA on soluble human αvβ5
Experimental: Competition ELISA: A 96-well microtiter plate was coated with 50 μl/well of 5 μg/mL soluble human αvβ5 protein at 4° C. overnight. The plate was washed with wash buffer (0.05% Tween-20 in PBS) four times in an automated plate washer. 300 μl/well of 1% BSA in PBS was added and incubated for 1 hr at 25° C. to block nonspecific binding. The plate was washed as above, and dilutions of humanized antibodies mixed with 1 nM murine ALULA in PBS containing 1% BSA, were added (50 μl/well). The plate was incubated for 1 hr at 25° C., washed, and then incubated for 40 minutes with 100 μl/well of […] goat anti-mouse antibody. Bound antibody was detected using 3,3′,5,5′-tetramethylbenzidine (TMB). Binding was indicated by the absorbency measured at 450 nm.
as §2

[8] = biological target: T2, human soluble αvβ5 protein …; experiment: ELISA, purified hsαvβ5 coated at 2 µg/mL, anti-human IgG-HRP detection
Experimental: Purified hsαvβ5 protein was coated directly on a 96-well ELISA plate at 2 μg/mL, and H4/L2 antibody binding was detected using a horseradish peroxidase conjugated donkey anti-human IgG polyclonal antibody. In this format, the EC₅₀ of the H4/L2 antibody for αvβ5 was about 65 pM.

[9] = biological target: T1, human αvβ5 expressed on BaF3 cells …; experiment: flow cytometry on BaF3 cells co-transfected with human αv and human β5
Experimental: The binding of the H4/L2 antibody (SEQ ID NOs.: 69 and 70) to αvβ5 expressed on the cell surface was determined using flow cytometry on BaF3 cells stably co-transfected with human αv and human β5 integrin subunits. BaF3 cells are a murine IL-3 dependent hematopoietic cell line of indeterminate origin. These cells endogenously express mouse alpha-V (as well as alpha-4, alpha-5, and beta-1 integrins) but no beta-5 or beta-6 integrin.
The H4/L2 antibody was added to cells in FACS Buffer (PBS, 1% BSA, 1 mM CaCl₂, 1 mM MgCl₂) for 30 minutes on ice. After washing, bound antibody was detected with an anti-human-Alexa Fluor® 488 secondary antibody. Cells fixed in 1% paraformaldehyde were collected on a FACS Calibur and mean fluorescence intensity was analyzed using FlowJo software.

[10] = biological target: T1, human αvβ5 expressed on BaF3 cells …; experiment: FACS binding curves on αvβ5-BaF3 cells, 10,000 cells/experiment; mAb (bivalent IgG)
Experimental: as §1

T1 sequence (P06756 31-1048 limits assumed, chain 1 of 2): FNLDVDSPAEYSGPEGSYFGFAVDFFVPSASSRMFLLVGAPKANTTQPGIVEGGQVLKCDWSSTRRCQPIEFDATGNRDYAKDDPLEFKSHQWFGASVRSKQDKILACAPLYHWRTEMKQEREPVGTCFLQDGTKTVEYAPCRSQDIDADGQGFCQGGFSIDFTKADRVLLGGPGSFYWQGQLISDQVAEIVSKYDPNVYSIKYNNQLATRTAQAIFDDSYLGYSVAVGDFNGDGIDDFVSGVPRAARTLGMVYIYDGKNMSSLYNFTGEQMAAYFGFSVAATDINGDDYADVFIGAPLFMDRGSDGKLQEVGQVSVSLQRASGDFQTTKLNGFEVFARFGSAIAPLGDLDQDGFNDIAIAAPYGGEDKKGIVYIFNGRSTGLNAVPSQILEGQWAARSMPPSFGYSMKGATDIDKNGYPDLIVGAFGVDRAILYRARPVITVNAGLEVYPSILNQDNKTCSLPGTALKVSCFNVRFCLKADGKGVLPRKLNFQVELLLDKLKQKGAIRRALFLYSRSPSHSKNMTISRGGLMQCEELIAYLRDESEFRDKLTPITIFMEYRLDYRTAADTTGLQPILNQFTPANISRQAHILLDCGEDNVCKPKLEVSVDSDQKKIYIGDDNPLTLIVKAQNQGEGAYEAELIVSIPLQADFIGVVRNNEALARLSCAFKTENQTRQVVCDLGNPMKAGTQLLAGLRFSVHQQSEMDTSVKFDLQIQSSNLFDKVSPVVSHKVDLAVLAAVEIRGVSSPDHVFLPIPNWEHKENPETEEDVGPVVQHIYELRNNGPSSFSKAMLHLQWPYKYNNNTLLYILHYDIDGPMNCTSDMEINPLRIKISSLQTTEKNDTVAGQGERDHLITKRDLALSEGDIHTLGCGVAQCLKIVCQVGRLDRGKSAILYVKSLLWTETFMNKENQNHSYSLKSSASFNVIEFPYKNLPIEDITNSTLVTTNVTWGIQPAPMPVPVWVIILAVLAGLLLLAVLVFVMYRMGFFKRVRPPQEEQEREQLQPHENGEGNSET
T1 sequence (P18084 24-799 limits assumed, chain 2 of 2): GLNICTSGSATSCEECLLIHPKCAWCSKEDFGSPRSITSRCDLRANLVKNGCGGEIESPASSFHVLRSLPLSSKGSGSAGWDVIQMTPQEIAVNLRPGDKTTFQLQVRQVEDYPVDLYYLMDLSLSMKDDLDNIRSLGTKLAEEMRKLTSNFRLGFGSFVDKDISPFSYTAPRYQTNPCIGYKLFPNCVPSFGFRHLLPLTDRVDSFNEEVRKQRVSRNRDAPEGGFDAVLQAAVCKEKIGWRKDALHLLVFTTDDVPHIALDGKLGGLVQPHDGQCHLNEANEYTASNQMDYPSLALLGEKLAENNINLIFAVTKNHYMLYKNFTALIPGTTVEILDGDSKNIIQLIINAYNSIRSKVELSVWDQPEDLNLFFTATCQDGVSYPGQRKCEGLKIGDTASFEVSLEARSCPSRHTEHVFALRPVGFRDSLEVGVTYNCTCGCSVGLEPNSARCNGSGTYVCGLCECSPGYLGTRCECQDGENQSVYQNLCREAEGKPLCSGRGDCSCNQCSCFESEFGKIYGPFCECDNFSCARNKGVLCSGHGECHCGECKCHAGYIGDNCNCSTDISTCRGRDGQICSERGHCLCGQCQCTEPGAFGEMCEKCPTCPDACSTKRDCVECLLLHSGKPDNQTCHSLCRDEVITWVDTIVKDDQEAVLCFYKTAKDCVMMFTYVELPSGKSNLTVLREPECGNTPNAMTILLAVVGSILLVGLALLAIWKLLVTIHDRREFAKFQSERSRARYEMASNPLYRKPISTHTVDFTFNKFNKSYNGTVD
T2 sequence (P06756 31-992 limits assumed, chain 1 of 2): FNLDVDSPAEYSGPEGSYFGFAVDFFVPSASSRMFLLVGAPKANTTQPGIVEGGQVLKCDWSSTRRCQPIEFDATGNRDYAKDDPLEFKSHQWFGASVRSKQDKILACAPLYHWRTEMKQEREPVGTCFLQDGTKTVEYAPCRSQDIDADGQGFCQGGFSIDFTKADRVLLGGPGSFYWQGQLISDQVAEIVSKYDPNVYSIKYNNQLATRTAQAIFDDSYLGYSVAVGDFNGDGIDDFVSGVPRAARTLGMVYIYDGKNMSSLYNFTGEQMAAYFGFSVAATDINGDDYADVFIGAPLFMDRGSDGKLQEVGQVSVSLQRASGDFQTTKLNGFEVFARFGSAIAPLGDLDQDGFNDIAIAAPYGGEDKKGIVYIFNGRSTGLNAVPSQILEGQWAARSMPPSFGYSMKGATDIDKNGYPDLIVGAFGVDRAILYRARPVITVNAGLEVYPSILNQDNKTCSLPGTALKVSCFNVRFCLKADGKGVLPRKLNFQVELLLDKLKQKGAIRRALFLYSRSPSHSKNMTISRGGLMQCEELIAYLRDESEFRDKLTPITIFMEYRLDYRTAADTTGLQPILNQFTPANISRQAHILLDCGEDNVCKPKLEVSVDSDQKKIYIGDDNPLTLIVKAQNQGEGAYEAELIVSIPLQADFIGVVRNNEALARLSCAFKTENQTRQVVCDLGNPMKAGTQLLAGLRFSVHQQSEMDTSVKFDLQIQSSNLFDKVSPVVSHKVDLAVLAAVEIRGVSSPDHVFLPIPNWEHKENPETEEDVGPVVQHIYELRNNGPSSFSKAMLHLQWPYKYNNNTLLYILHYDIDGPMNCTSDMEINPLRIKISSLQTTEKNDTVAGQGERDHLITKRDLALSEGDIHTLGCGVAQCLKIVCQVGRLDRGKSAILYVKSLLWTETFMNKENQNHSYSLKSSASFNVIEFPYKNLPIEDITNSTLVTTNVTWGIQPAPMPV
T2 sequence (P18084 24-719 limits assumed, chain 2 of 2): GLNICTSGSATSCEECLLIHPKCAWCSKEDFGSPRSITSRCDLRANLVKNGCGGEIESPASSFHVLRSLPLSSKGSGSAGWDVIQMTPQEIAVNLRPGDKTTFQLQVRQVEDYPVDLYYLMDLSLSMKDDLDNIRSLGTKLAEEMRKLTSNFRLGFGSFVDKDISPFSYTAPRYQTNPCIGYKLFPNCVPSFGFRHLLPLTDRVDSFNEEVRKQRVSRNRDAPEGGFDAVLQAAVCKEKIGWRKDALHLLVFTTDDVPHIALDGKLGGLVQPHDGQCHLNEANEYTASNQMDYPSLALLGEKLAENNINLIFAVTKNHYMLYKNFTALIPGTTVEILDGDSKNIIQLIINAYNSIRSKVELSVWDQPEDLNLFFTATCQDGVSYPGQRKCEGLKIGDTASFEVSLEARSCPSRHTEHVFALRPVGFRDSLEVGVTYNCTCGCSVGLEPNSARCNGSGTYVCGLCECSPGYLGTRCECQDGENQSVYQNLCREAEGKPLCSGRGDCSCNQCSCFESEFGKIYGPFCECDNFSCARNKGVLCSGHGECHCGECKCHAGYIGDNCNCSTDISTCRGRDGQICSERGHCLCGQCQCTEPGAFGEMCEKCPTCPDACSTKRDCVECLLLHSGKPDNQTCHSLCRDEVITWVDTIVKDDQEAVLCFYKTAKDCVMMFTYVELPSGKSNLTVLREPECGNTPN

Row | Binder | Kd [1] | Fold change (IC50 against mouse chimeric ALULA) [2] | IC50 [2] | BaF3-hu αvβ5 Cell adhesion to vitronectin (IC50, nM) [3] | BaF3-hu αvβ5 Cell adhesion to vitronectin, Fold chg. (against mouse chimeric ALULA) [3] | BaF3-cyno αvβ5 Cell adhesion to vitronectin (IC50, nM) [4] | BaF3-cyno αvβ5 Cell adhesion to vitronectin, Fold chg. (against mouse chimeric ALULA) [4] | EC50 [5] | Fold chg. (EC50 against mouse chimeric ALULA) [5] | Fold chg. (IC50 against mouse chimeric ALULA) [6] | IC50 [6] | Fold chg. (IC50 against mouse chimeric ALULA) [7] | IC50 [7] | EC50 [8] | EC50 [9] | Kd [10]
1 | VH4/VL2 Fab fragment (Fab, V domains shown, also called H4/L2 (Fab source); H4L2 hIgG1 Fab) VH: EVQVVQSGGGLVKPGESLRLSCKASGYTFTSYWMHWVKQAPGKGLEWVGAIYPGNSDTSYNQKFKGKFTISADTSPNTAYLQMNSLKTEDTAVYYCTTTTYGYDWFAYWGQGTLVTVSS VL: NIQMTQSPSSLSASVGDRVTMSCKSSQSVLYSSNQKNYLAWYQQKPGKSPKLLIYWASTRESGVPDRFTGSGSGTDFTLTISSLQPEDFATYYCHQYLSSLTFGQGTKLEIK | 0.42 nM | 0.9 fold | 4.3 nM |  |  |  |  |  |  |  |  |  |  |  |  | 
2 | ALULA-H4/L2-IgG4.P(S228P)/IgG1(N297Q) (antibody, V domains shown, Hybrid aglycosylated IgG4.P (S228P)/IgG1 (N297Q) heavy chain, human kappa light chain; also called VH4/VL2 (Agly-IgG4P/G1); H4/L2 antibody) VH: EVQVVQSGGGLVKPGESLRLSCKASGYTFTSYWMHWVKQAPGKGLEWVGAIYPGNSDTSYNQKFKGKFTISADTSPNTAYLQMNSLKTEDTAVYYCTTTTYGYDWFAYWGQGTLVTVSS VL: NIQMTQSPSSLSASVGDRVTMSCKSSQSVLYSSNQKNYLAWYQQKPGKSPKLLIYWASTRESGVPDRFTGSGSGTDFTLTISSLQPEDFATYYCHQYLSSLTFGQGTKLEIKR |  |  |  | 0.1 nM | 0.6 fold | 0.32 nM | 0.5 fold | 2.92 nM | 0.6 fold | 0.7 fold | 1.06 nM | 1 fold | 1.84 nM | ~0.065 nM | 3 nM | 0.08 nM
3 | VH5/VL2 Agly-IgG4.P (S228P)/IgG1 (N297Q) (antibody, V domains shown, also called VH5/VL2 (Agly-IgG4P/G1); H5/L2) VH: EVQVQQSGGGLVKPGGSLRLSCKASGYTFTSYWMHWVKQAPGKGLEWVGAIYPGNSDTSYNQKFKGKATLSAVTSPNTAYLQMNSLKTEDTAVYYCTTTTYGYDWFAYWGQGTLVTVSS VL: NIQMTQSPSSLSASVGDRVTMSCKSSQSVLYSSNQKNYLAWYQQKPGKSPKLLIYWASTRESGVPDRFTGSGSGTDFTLTISSLQPEDFATYYCHQYLSSLTFGQGTKLEIKR |  |  |  | 0.29 nM | 1.7 fold | 0.63 nM | 1 fold | 2.9 nM | 0.5 fold | 0.8 fold | 1.24 nM | 1 fold | 1.85 nM |  |  | 
4 | Mouse chimeric ALULA (murine ALULA variable domains fused to human IgG1 heavy chain and human kappa light chain domains) (antibody, V domains shown, also called chimeric form of ALULA; chimeric murine antibody) VH: EVQVQQSGTVLARPGASVKMSCKASGYTFTSYWMHWVKQRPGQGLEWIGAIYPGNSDTSYNQKFKGKAKLTAVTSPNTAYMELSSLTNEDSAVYYCTTTTYGYDWFAYWGQGTLVTVSA VL: NIMMTQSPSSLTVSAGEKVTMSCKSSQSVLYSSNQKNYLAWYQQKPGQSPKLLIYWASTRESGVPDRFTGSGSGTDFTLTISSVQAEDLAVYYCHQYLSSLTFGAGTKLELK |  |  |  | 0.17 nM |  | 0.61 nM |  | 5.06 nM |  |  | 1.6 nM |  | 1.81 nM |  |  | 
